Experimental findings from patent publication US20080286264A1 (Dana-Farber, published 2008) are described below.

The test deals with p53(293-393) (human, UniProt P04637 293-393). In words: co-IP with anti-p53 from transfected U2OS cells, immunoblot with anti-MUC1 C-ter. (A western blot detects proteins with antibodies after separation by electrophoresis.)
Sequence of p53(293-393) (P04637 293-393): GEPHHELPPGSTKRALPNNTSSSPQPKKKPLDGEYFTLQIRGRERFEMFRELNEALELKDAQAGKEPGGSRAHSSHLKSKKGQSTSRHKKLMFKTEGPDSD

B1: Myc-MUC1-CD(1-72) (other)
chain: CQCRRKNYGQLDIFPARDTYHPMSEYPTYHTHGRYVPPSSTDRSPYEKVSAGNGGSSLSYTNPAVAATSANL
notes: Transiently expressed in U2OS cells; not shown: Myc tag
Take B1: the binding result is listed as “binds”.
